Experimental data reported in publication PMC10786891, “Massively parallel profiling of RNA-targeting CRISPR-Cas13d”.
Changes are numbered by the printed parent chain. In names and notes the source's numbering stands.

Molecular target: T1, EsCas13d, nuclease-dead (Eubacterium siraeum, UniProt B0MS50, R295A;H300A;R849A;H854A)
T1 sequence: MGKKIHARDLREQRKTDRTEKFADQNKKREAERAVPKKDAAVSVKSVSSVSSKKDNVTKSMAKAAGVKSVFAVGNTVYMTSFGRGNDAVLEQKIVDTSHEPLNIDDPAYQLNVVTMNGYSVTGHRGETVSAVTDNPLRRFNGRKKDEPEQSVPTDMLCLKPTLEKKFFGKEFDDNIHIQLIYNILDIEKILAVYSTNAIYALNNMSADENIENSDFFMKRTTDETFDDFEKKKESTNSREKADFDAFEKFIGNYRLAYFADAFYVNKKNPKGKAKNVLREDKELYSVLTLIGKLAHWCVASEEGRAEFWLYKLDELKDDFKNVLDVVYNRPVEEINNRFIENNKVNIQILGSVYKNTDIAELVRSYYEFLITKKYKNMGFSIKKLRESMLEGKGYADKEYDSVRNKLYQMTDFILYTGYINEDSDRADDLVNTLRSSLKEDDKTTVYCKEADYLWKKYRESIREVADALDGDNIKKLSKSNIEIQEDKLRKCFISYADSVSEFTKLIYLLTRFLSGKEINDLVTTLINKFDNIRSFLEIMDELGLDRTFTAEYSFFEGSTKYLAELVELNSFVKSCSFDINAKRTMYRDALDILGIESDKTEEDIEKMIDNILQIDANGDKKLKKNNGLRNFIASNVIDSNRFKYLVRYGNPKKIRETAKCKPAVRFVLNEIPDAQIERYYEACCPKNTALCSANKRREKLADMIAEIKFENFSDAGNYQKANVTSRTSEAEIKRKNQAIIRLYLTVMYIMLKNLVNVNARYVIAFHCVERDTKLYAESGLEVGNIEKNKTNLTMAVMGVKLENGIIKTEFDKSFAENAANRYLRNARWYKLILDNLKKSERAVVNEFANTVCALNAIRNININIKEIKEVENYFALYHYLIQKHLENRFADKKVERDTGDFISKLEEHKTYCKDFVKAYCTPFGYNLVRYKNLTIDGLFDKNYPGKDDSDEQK
Experiment: crRNA (strand 1, pre-loaded); Mg2+; 40 mM Tris-HCl pH 7.5, 150 mM NaCl, 6 mM MgCl2, 1 mM DTT, 0.1% Tween-20, 0.2 mg/ml BSA; 25 C; 10 min per concentration, then washed
Details: tags: His6-TwinStrep-SUMO cleaved; N-terminal SNAP kept (SNAP-Surface 488); label: 3' end held by stalled T7 RNA polymerase

B1: target 1 del4,del7 (mixed)
RNA 1: CACCCGUGCAAAAAUGCAGGGGUCUAAAACUGAGCGGAUAACCUCUCUAUGG
RNA 2: GGGAAUGGAUCCACAUCUACGAAUUCGUACCAUAGAGAGGUUAUCGUCACCGAGAUCGGAAGAGCACACGU
B1 showed a Kd of 5.34 ± 0.24 nM.

B2: target 1 insU 3' of 21,insC 3' of 19 (mixed)
RNA 1: B1 RNA 1
RNA 2: GGGAAUGGAUCCACAUCUACGAAUUCGUACCUAUCAGAGAGGUUAUCCGCUCACCGAGAUCGGAAGAGCACACGU
For B2, the Kd was about 100 nM.

B3: target 1 U3G,G17C (mixed)
RNA 1: B1 RNA 1
RNA 2: GGGAAUGGAUCCACAUCUACGAAUUCGUACCAUACAGAGGUUAUCCGCGCACCGAGAUCGGAAGAGCACACGU
For B3, the Kd was 36.7 ± 2.8 nM.

B4: target 1 C2U,U10A (mixed)
RNA 1: B1 RNA 1
RNA 2: B3 RNA 2 with C35G, U42A, G49U, C50U
B4 showed a Kd of 11.6 ± 1.4 nM.

B5: target 2 MT 5'PFS AGU 3'PFS AUC (mixed)
RNA 1: CACCCGUGCAAAAUUGCAGGGGUCUAAAACCUUCUCCAAAUUGUUUCAUCCU
RNA 2: GGGAAUGGAUCCACAUCUACGAAUUCAGUAGGAUGAAACAAUUUGGAGAAGAUCAGAUCGGAAGAGCACACGU
For B5, the Kd was 16.7 ± 3.2 nM.

B6: target 2 MT 5'PFS UGA 3'PFS UAA (mixed)
RNA 1: B5 RNA 1
RNA 2: B5 RNA 2 with A27U, U29A, A52U, U53A, C54A
With B6 the Kd was 6 ± 1.3 nM.

B7: target 2 MT 5'PFS UUC 3'PFS UCC (mixed)
RNA 1: B5 RNA 1
RNA 2: B5 RNA 2 with A27U, G28U, U29C, A52U, U53C
Work on B7 yielded a Kd of 19.6 ± 3 nM.

B8: target 2 MT 5'PFS GUA 3'PFS UUA (mixed)
RNA 1: B5 RNA 1
RNA 2: B5 RNA 2 with A27G, G28U, U29A, A52U, C54A
For B8, the Kd was 22 ± 4 nM.

B9: target 2 MT 5'PFS GAU 3'PFS CGC (mixed)
RNA 1: B5 RNA 1
RNA 2: B5 RNA 2 with A27G, G28A, A52C, U53G
With B9 the Kd was 12.7 ± 2 nM.

B10: target 2 MT 5'PFS GUG 3'PFS UAU (mixed)
RNA 1: B5 RNA 1
RNA 2: B5 RNA 2 with A27G, G28U, U29G, A52U, U53A, C54U
Binder B10 has a Kd of 9.5 ± 0.7 nM.

B11: target 2 MT 5'PFS AAG 3'PFS CAG (mixed)
RNA 1: B5 RNA 1
RNA 2: B5 RNA 2 with G28A, U29G, A52C, U53A, C54G
B11 gave a Kd of 4.2 ± 0.7 nM.

B12: target 2 MT 5'PFS AUG 3'PFS AGA (mixed)
RNA 1: B5 RNA 1
RNA 2: B5 RNA 2 with G28U, U29G, U53G, C54A
For B12, the Kd was 15 ± 5 nM.

B13: target 2 MT 5'PFS UGA 3'PFS UAC (mixed)
RNA 1: B5 RNA 1
RNA 2: B5 RNA 2 with A27U, U29A, A52U, U53A
With B13 the Kd was 9.1 ± 1.6 nM.

B14: target 2 MT 5'PFS GUG 3'PFS UAC (mixed)
RNA 1: B5 RNA 1
RNA 2: B5 RNA 2 with A27G, G28U, U29G, A52U, U53A
B14 was tested, and the Kd was 15.1 ± 1.5 nM.

B15: target 2 MT 5'PFS GCA 3'PFS ACA (mixed)
RNA 1: B5 RNA 1
RNA 2: B5 RNA 2 with A27G, G28C, U29A, U53C, C54A
B15 gave a Kd of 10.2 ± 1.7 nM.

B16: target 2 MT 5'PFS UAG 3'PFS UUA (mixed)
RNA 1: B5 RNA 1
RNA 2: B5 RNA 2 with A27U, G28A, U29G, A52U, C54A
In the case of B16, the Kd is reported as 8.1 ± 1.6 nM.

B17: target 2 MT 5'PFS GCA 3'PFS ACC (mixed)
RNA 1: B5 RNA 1
RNA 2: B5 RNA 2 with A27G, G28C, U29A, U53C
With B17 the Kd was about 36 nM.

B18: target 2 MT 5'PFS GCA 3'PFS ACU (mixed)
RNA 1: B5 RNA 1
RNA 2: B5 RNA 2 with A27G, G28C, U29A, U53C, C54U
B18 gave a Kd of 13.2 ± 1.8 nM.

B19: target 2 MT 5'PFS GCA 3'PFS ACG (mixed)
RNA 1: B5 RNA 1
RNA 2: B5 RNA 2 with A27G, G28C, U29A, U53C, C54G
With B19 the Kd was 13.3 ± 2 nM.

B20: target 2 MT 5'PFS UAG 3'PFS UUC (mixed)
RNA 1: B5 RNA 1
RNA 2: B5 RNA 2 with A27U, G28A, U29G, A52U
For B20, the Kd was 7.2 ± 0.9 nM.

B21: target 2 MT 5'PFS ACU 3'PFS AGA (mixed)
RNA 1: B5 RNA 1
RNA 2: B5 RNA 2 with G28C, U53G, C54A
With B21 the Kd was 3.7 ± 0.5 nM.

B22: target 2 MT 5'PFS UUC 3'PFS AUA (mixed)
RNA 1: B5 RNA 1
RNA 2: B5 RNA 2 with A27U, G28U, U29C, C54A
With B22 the Kd was 16 ± 5 nM.

B23: target 2 MT 5'PFS ACU 3'PFS AGC (mixed)
RNA 1: B5 RNA 1
RNA 2: B5 RNA 2 with G28C, U53G
Work on B23 yielded a Kd of 3.18 ± 0.3 nM.

B24: target 2 MT 5'PFS CUG 3'PFS CCG (mixed)
RNA 1: B5 RNA 1
RNA 2: B5 RNA 2 with A27C, G28U, U29G, A52C, U53C, C54G
B24 gave a Kd of 4.06 ± 0.2 nM.

B25: target 2 MT 5'PFS ACU 3'PFS AGG (mixed)
RNA 1: B5 RNA 1
RNA 2: B5 RNA 2 with G28C, U53G, C54G
B25 gave a Kd of 4.5 ± 0.6 nM.

B26: target 2 MT 5'PFS AUG 3'PFS AGU (mixed)
RNA 1: B5 RNA 1
RNA 2: B5 RNA 2 with G28U, U29G, U53G, C54U
B26 gave a Kd of 11.1 ± 1.6 nM.

B27: target 2 MT 5'PFS GAU 3'PFS CGA (mixed)
RNA 1: B5 RNA 1
RNA 2: B5 RNA 2 with A27G, G28A, A52C, U53G, C54A
For B27, the Kd was 10.9 ± 1.4 nM.

B28: target 2 MT 5'PFS GUG 3'PFS UAA (mixed)
RNA 1: B5 RNA 1
RNA 2: B5 RNA 2 with A27G, G28U, U29G, A52U, U53A, C54A
Binder B28 has a Kd of 9 ± 0.7 nM.

B29: target 2 MT 5'PFS GAU 3'PFS CGU (mixed)
RNA 1: B5 RNA 1
RNA 2: B5 RNA 2 with A27G, G28A, A52C, U53G, C54U
Work on B29 yielded a Kd of 14.1 ± 2.6 nM.

B30: target 2 MT 5'PFS AAG 3'PFS CAC (mixed)
RNA 1: B5 RNA 1
RNA 2: B5 RNA 2 with G28A, U29G, A52C, U53A
For B30, the Kd was 2.9 ± 1 nM.

B31: target 2 MT 5'PFS UCU 3'PFS CUC (mixed)
RNA 1: B5 RNA 1
RNA 2: B5 RNA 2 with A27U, G28C, A52C
With B31 the Kd was 9.3 ± 1.6 nM.

B32: target 2 MT 5'PFS AUU 3'PFS CUU (mixed)
RNA 1: B5 RNA 1
RNA 2: B5 RNA 2 with G28U, A52C, C54U
B32 showed a Kd of 10 ± 1 nM.

B33: target 2 MT 5'PFS GUA 3'PFS AUA (mixed)
RNA 1: B5 RNA 1
RNA 2: B5 RNA 2 with A27G, G28U, U29A, C54A
B33 showed a Kd of 6.1 ± 0.7 nM.

B34: target 2 MT 5'PFS UCU 3'PFS CUA (mixed)
RNA 1: B5 RNA 1
RNA 2: B5 RNA 2 with A27U, G28C, A52C, C54A
B34 gave a Kd of 20 ± 6 nM.

B35: target 2 MT 5'PFS GCG 3'PFS AAC (mixed)
RNA 1: B5 RNA 1
RNA 2: B5 RNA 2 with A27G, G28C, U29G, U53A
With B35 the Kd was 15 ± 4 nM.

B36: target 2 MT 5'PFS AUG 3'PFS ACG (mixed)
RNA 1: B5 RNA 1
RNA 2: B5 RNA 2 with G28U, U29G, U53C, C54G
B36 was tested, and the Kd was 12.6 ± 2.1 nM.

B37: target 2 MT 5'PFS CUG 3'PFS CCA (mixed)
RNA 1: B5 RNA 1
RNA 2: B5 RNA 2 with A27C, G28U, U29G, A52C, U53C, C54A
B37 was tested, and the Kd was 14.9 ± 3.1 nM.

B38: target 2 MT 5'PFS CUG 3'PFS CCU (mixed)
RNA 1: B5 RNA 1
RNA 2: B5 RNA 2 with A27C, G28U, U29G, A52C, U53C, C54U
B38 gave a Kd of 57 ± 22 nM.
